Measurements published in the supplement of paper PMC10126150.
± gives the standard deviation of the averaged measurements.

Test system: ATP
Assay: switch fluorescence ratio, 500 uM ATP over buffer (Cy3 cluster intensity, sum of 5 cycles each) (fold (ratio)); higher = stronger signal-on switching upon ATP binding; sequences stand for … in TCGTCGGCAGCGTCAGATGTGTATAAGAGACAGTTTTTTTTTTTTTTTTTTTTTTTTT…TC
Settings: aptamer strand: ATP DNA aptamer (quencher-CACCTGGGGGAGTATTGCGGAGGAAGG + anchor), 100 nM annealed; ATP concentration: 500 uM
In short: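 Five buffer/ATP imaging cycles were run on Cy3-labelled switching-strand clusters on a modified Illumina MiSeq flow-cell, with NaOH stripping and re-annealing between cycles. In each cycle, clusters annealed to 100 nM quencher-labelled ATP aptamer were imaged in selection buffer, then after 15 min with 500 uM ATP at 22 °C. Per cluster, the fluorescence ratio is summed target-cycle over summed buffer-cycle Cy3 intensity, averaged per switch-domain sequence. Only clusters within 100-1000 RFU were kept.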
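Further: ATP exposure 15 min at 22 °C before imaging.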

Sequence TTACGTAAGG has a switch fluorescence ratio of 1.23 ± 0.051.

For TTACGTGTTA, the switch fluorescence ratio was 0.995 ± 0.041.

In the case of TTACGTTACG, the switch fluorescence ratio is reported as 1.34 ± 0.047.

TTACTAGTAT was tested, and the switch fluorescence ratio was 1 ± 0.025.

Work on TTACTATCTG yielded a switch fluorescence ratio of 1.01 ± 0.019.

Sequence TTACTATGAA has a switch fluorescence ratio of 1.039 ± 0.0071.

TTACTCAGCC gave a switch fluorescence ratio of 1.12 ± 0.055.

TTACTCGGTC gave a switch fluorescence ratio of 0.99 ± 0.052.

Sequence TTACTGATGG has a switch fluorescence ratio of 0.99 ± 0.033.

Sequence TTACTTAAAA has a switch fluorescence ratio of 0.988 ± 0.04.

With TTACTTGAGA the switch fluorescence ratio was 0.99 ± 0.032.

Sequence TTACTTGTAC has a switch fluorescence ratio of 1.15 ± 0.025.

Sequence TTACTTTGCT has a switch fluorescence ratio of 1.003 ± 0.0061.

For TTACTTTTCG, the switch fluorescence ratio was 1.03 ± 0.057.

With TTAGAAAACT the switch fluorescence ratio was 1 ± 0.012.

TTAGAAAATA was tested, and the switch fluorescence ratio was 1.12 ± 0.15.

Work on TTAGAAAGTC yielded a switch fluorescence ratio of 1.64 ± 0.93.

Work on TTAGAACTCC yielded a switch fluorescence ratio of 1.05 ± 0.036.

In the case of TTAGAAGCTT, the switch fluorescence ratio is reported as 1.03 ± 0.03.

Sequence TTAGAAGTAT has a switch fluorescence ratio of 1.03 ± 0.046.

For TTAGAAGTGG, the switch fluorescence ratio was 0.988 ± 0.025.

For TTAGACGGCC, the switch fluorescence ratio was 1.03 ± 0.014.

TTAGACGGGA gave a switch fluorescence ratio of 1.026 ± 0.0043.

With TTAGACTTAT the switch fluorescence ratio was 1.01 ± 0.021.

TTAGAGACAG was tested, and the switch fluorescence ratio was 0.985 ± 0.049.

Sequence TTAGAGCATT has a switch fluorescence ratio of 1 ± 0.026.

With TTAGAGGCCC the switch fluorescence ratio was 1.01 ± 0.032.

TTAGAGGGAC was tested, and the switch fluorescence ratio was 0.971 ± 0.014.

For TTAGAGGGGT, the switch fluorescence ratio was 0.992 ± 0.03.

With TTAGAGGTCT the switch fluorescence ratio was 0.978 ± 0.011.

Work on TTAGAGTGGT yielded a switch fluorescence ratio of 1.01 ± 0.033.

With TTAGATATGG the switch fluorescence ratio was 1.02 ± 0.026.

Sequence TTAGATCTGC has a switch fluorescence ratio of 1.02 ± 0.083.

Work on TTAGATTGCG yielded a switch fluorescence ratio of 0.973 ± 0.026.

With TTAGATTTAA the switch fluorescence ratio was 0.998 ± 0.013.

For TTAGATTTTA, the switch fluorescence ratio was 0.961 ± 0.034.

For TTAGCAGCGC, the switch fluorescence ratio was 1.01 ± 0.055.

TTAGCATAGT showed a switch fluorescence ratio of 0.98 ± 0.024.

TTAGCCGGAC was tested, and the switch fluorescence ratio was 1.05 ± 0.013.

For TTAGCGCCGG, the switch fluorescence ratio was 1.03 ± 0.034.

In the case of TTAGCGTAGG, the switch fluorescence ratio is reported as 1.02 ± 0.0011.

Work on TTAGCGTTTT yielded a switch fluorescence ratio of 1.16 ± 0.25.

TTAGCTTCTT was tested, and the switch fluorescence ratio was 1.07 ± 0.066.

TTAGGAAA showed a switch fluorescence ratio of 0.984 ± 0.044.

TTAGGAACAC gave a switch fluorescence ratio of 1.07 ± 0.12.

TTAGGAACAT gave a switch fluorescence ratio of 1.2 ± 0.23.

TTAGGAAGAC gave a switch fluorescence ratio of 2.27 ± 1.4.

TTAGGAAGTT was tested, and the switch fluorescence ratio was 1 ± 0.033.

With TTAGGAGACT the switch fluorescence ratio was 0.991 ± 0.029.

In the case of TTAGGAGTGT, the switch fluorescence ratio is reported as 0.9863 ± 0.0051.

TTAGGATAT showed a switch fluorescence ratio of 1.02 ± 0.041.

In the case of TTAGGATTCG, the switch fluorescence ratio is reported as 1.02 ± 0.039.

Work on TTAGGATTTT yielded a switch fluorescence ratio of 1.01 ± 0.011.

With TTAGGCAGGG the switch fluorescence ratio was 1 ± 0.016.

Work on TTAGGCAGGT yielded a switch fluorescence ratio of 0.994 ± 0.048.

For TTAGGCCCTT, the switch fluorescence ratio was 1.02 ± 0.011.

TTAGGCCTTT showed a switch fluorescence ratio of 0.972 ± 0.048.

TTAGGCGCCG gave a switch fluorescence ratio of 0.994 ± 0.054.

TTAGGCGGGT showed a switch fluorescence ratio of 1.01 ± 0.064.

Sequence TTAGGCGGTT has a switch fluorescence ratio of 1 ± 0.017.

TTAGGCTAAA showed a switch fluorescence ratio of 1.002 ± 0.0074.

Sequence TTAGGGATCT has a switch fluorescence ratio of 0.9904 ± 0.0042.

With TTAGGGCTTA the switch fluorescence ratio was 0.995 ± 0.013.

TTAGGGGAAA was tested, and the switch fluorescence ratio was 1.03 ± 0.066.

For TTAGGGGACA, the switch fluorescence ratio was 1.04 ± 0.025.

TTAGGGGGAC was tested, and the switch fluorescence ratio was 1 ± 0.041.

For TTAGGGGGAT, the switch fluorescence ratio was 0.988 ± 0.019.

TTAGGGGGCA was tested, and the switch fluorescence ratio was 1.01 ± 0.03.

In the case of TTAGGGGGCG, the switch fluorescence ratio is reported as 1.03 ± 0.045.

Work on TTAGGGGTCC yielded a switch fluorescence ratio of 0.998 ± 0.022.

TTAGGGGTGC was tested, and the switch fluorescence ratio was 1.07 ± 0.037.

With TTAGGGGTTG the switch fluorescence ratio was 0.979 ± 0.024.

For TTAGGGGTTT, the switch fluorescence ratio was 0.997 ± 0.041.

In the case of TTAGGGTCCC, the switch fluorescence ratio is reported as 1.02 ± 0.016.

Work on TTAGGGTGCA yielded a switch fluorescence ratio of 1.01 ± 0.025.

Sequence TTAGGTACCG has a switch fluorescence ratio of 1.012 ± 0.0016.

TTAGGTCCGG gave a switch fluorescence ratio of 1.008 ± 0.0092.

In the case of TTAGGTGAGG, the switch fluorescence ratio is reported as 0.993 ± 0.026.

With TTAGGTGGAG the switch fluorescence ratio was 0.977 ± 0.031.

With TTAGGTGTTA the switch fluorescence ratio was 1.03 ± 0.022.

Work on TTAGGTTCAG yielded a switch fluorescence ratio of 0.9774 ± 0.0084.

In the case of TTAGTACATG, the switch fluorescence ratio is reported as 0.976 ± 0.019.

With TTAGTACTGC the switch fluorescence ratio was 1.03 ± 0.02.

TTAGTAGGGG showed a switch fluorescence ratio of 1 ± 0.021.

With TTAGTAGTGC the switch fluorescence ratio was 1.02 ± 0.035.

For TTAGTAGTTG, the switch fluorescence ratio was 1.02 ± 0.028.

In the case of TTAGTATTTA, the switch fluorescence ratio is reported as 1.01 ± 0.056.

Work on TTAGTCCAGA yielded a switch fluorescence ratio of 1.007 ± 0.0018.

TTAGTCGGGA gave a switch fluorescence ratio of 1.023 ± 0.0028.

In the case of TTAGTGACTA, the switch fluorescence ratio is reported as 1.01 ± 0.031.

TTAGTGATCT was tested, and the switch fluorescence ratio was 0.998 ± 0.015.

TTAGTGGGTA was tested, and the switch fluorescence ratio was 0.981 ± 0.082.

TTAGTGTCGT was tested, and the switch fluorescence ratio was 1.02 ± 0.017.

In the case of TTAGTTAAAG, the switch fluorescence ratio is reported as 1 ± 0.014.

Sequence TTAGTTATAC has a switch fluorescence ratio of 1.78 ± 0.59.

TTAGTTATTC gave a switch fluorescence ratio of 1.022 ± 0.0032.

TTAGTTGGTC was tested, and the switch fluorescence ratio was 0.996 ± 0.029.

Work on TTAGTTGTGG yielded a switch fluorescence ratio of 0.982 ± 0.02.

TTAGTTTAAT was tested, and the switch fluorescence ratio was 1.02 ± 0.024.

Work on TTAGTTTATG yielded a switch fluorescence ratio of 0.981 ± 0.017.

TTAGTTTCTT gave a switch fluorescence ratio of 0.999 ± 0.017.

TTAGTTTTAC gave a switch fluorescence ratio of 1.004 ± 0.0029.

With TTAGTTTTCT the switch fluorescence ratio was 0.96 ± 0.013.

TTAGTTTTTT showed a switch fluorescence ratio of 1.01 ± 0.019.

With TTATAAAAAC the switch fluorescence ratio was 0.982 ± 0.076.

Sequence TTATAAAAAG has a switch fluorescence ratio of 0.974 ± 0.042.

For TTATAACTTT, the switch fluorescence ratio was 1.02 ± 0.028.

TTATAAGAGG was tested, and the switch fluorescence ratio was 0.979 ± 0.0047.

Sequence TTATAAGCGA has a switch fluorescence ratio of 1.02 ± 0.035.

Sequence TTATAAGGAA has a switch fluorescence ratio of 0.981 ± 0.015.

TTATAAGGGA was tested, and the switch fluorescence ratio was 0.977 ± 0.049.

TTATAAGTTA gave a switch fluorescence ratio of 0.9814 ± 0.0043.

TTATAAGTTT showed a switch fluorescence ratio of 1.03 ± 0.078.

In the case of TTATAATAGT, the switch fluorescence ratio is reported as 1 ± 0.013.

Sequence TTATAATTGT has a switch fluorescence ratio of 0.9966 ± 0.0022.

TTATAATTTC showed a switch fluorescence ratio of 1.009 ± 0.0023.

Sequence TTATACGCTT has a switch fluorescence ratio of 1.1 ± 0.017.

TTATAGAGGT showed a switch fluorescence ratio of 1.01 ± 0.011.

TTATAGGGCG was tested, and the switch fluorescence ratio was 1.02 ± 0.047.

With TTATATCAGA the switch fluorescence ratio was 1.016 ± 0.0083.

In the case of TTATATGTAG, the switch fluorescence ratio is reported as 0.993 ± 0.024.

TTATATGTGT gave a switch fluorescence ratio of 1.01 ± 0.039.

TTATATGTTA showed a switch fluorescence ratio of 1.03 ± 0.055.

TTATATTACT showed a switch fluorescence ratio of 1.01 ± 0.027.

Sequence TTATATTTAG has a switch fluorescence ratio of 0.988 ± 0.011.

Sequence TTATATTTAT has a switch fluorescence ratio of 1.03 ± 0.069.

Work on TTATATTTTG yielded a switch fluorescence ratio of 0.998 ± 0.017.

TTATATTTTT was tested, and the switch fluorescence ratio was 1.02 ± 0.023.

In the case of TTATCACTGG, the switch fluorescence ratio is reported as 1 ± 0.07.

With TTATCAGTGT the switch fluorescence ratio was 0.972 ± 0.063.

TTATCATTTA showed a switch fluorescence ratio of 1.01 ± 0.03.

TTATCGGTAT gave a switch fluorescence ratio of 1 ± 0.042.

In the case of TTATCTGATT, the switch fluorescence ratio is reported as 0.9952 ± 0.0017.

For TTATCTGCCT, the switch fluorescence ratio was 1.06 ± 0.072.

Sequence TTATGAACTT has a switch fluorescence ratio of 1 ± 0.035.

Sequence TTATGAAGAC has a switch fluorescence ratio of 1.025 ± 0.01.

TTATGAAGGA showed a switch fluorescence ratio of 1.02 ± 0.021.

For TTATGAAGGT, the switch fluorescence ratio was 1.02 ± 0.06.

Sequence TTATGATTCT has a switch fluorescence ratio of 0.972 ± 0.025.

With TTATGCGGGG the switch fluorescence ratio was 0.995 ± 0.046.

For TTATGCTGGG, the switch fluorescence ratio was 0.974 ± 0.012.

TTATGGGACA showed a switch fluorescence ratio of 1.026 ± 0.0097.

TTATGGGATT was tested, and the switch fluorescence ratio was 0.993 ± 0.019.

TTATGGGCGG gave a switch fluorescence ratio of 1.02 ± 0.047.

Sequence TTATGGTCGG has a switch fluorescence ratio of 0.984 ± 0.016.

Sequence TTATGGTGCA has a switch fluorescence ratio of 0.99 ± 0.023.

With TTATGGTGGT the switch fluorescence ratio was 0.973 ± 0.027.

For TTATGTAATC, the switch fluorescence ratio was 1.19 ± 0.25.

Sequence TTATGTCCGG has a switch fluorescence ratio of 1.02 ± 0.025.

Sequence TTATGTGACT has a switch fluorescence ratio of 1.01 ± 0.021.

Sequence TTATGTGCGA has a switch fluorescence ratio of 1.02 ± 0.013.

For TTATGTGTCG, the switch fluorescence ratio was 0.983 ± 0.033.

With TTATGTGTGT the switch fluorescence ratio was 0.996 ± 0.028.
